Experimental data from PMC5694663.

Molecular target: JunB-6×His
Experiment: co-purification

stoichiometry N: 1
B1: mCherry-BATF1 (natural protein)
chain: MPHSSDSSDSSFSRSPPPGKQDSSDDVRKVQRREKNRIAAQKSRQRQTQKADTLHLESEDLEKQNAALRKEIKQLTEELKYFTSVLSSHEPLCSVLASGTPSPPEVVYSAHAFHQPHISSPRFQP
